The results in this text go back to paper PMC3082182 (The Journal of Cell Biology, 2011).

This assay addresses GST–FL Rngo (Drosophila melanogaster, UniProt Q9VXF9 1-458). Description: pull-down.

B1: FL MBP-Rpn10 (natural protein)
chain: MVLESTMICFDNSDFQRNGDYFPTRLIVQRDGINLVCLTKLRSNPENNVGLMTLSNTVEVLATLTSDAGRIFSKMHLVQPKGEINLLTGIRIAHLVLKHRQGKNHKMRIVVFVGSPINHEEGDLVKQAKRLKKEKVNVDIVSFGDHGNNNEILTAFINALNGKDGTGSHLVSVPRGSVLSDALLSSPIIQGEDGMGGAGLGGNVFEFGVDPNEDPELALALRVSMEEQRQRQESEQRRANPDGAPPTGGDAGGGGGVSGSGPGNEESAGAENEANTEEAMLQRALALSTETPEDNLPDFANMTEEEQIAFAMQMSMQDAPDDSVTQQAKRPKTDEANAPMDVDEDYSEVIGDPAFLQSVLENLPGVDPQSEAVRDAVGSLNKDKDKKSDGKDSQKK
B1: the binding result was “binds”.
